Results as given in the RNAGym collection of RNA variant scans (doi:10.1073/pnas.2313332121).
Variants at the floor of the assay were thinned out.

B1: TPR 5TU (parent)
chain: GGAUCUUCUCGAUCUAACAAAAAAGACAAAUCUGCCACAAAGCUUGAGAGCAUCUUCGGAUGCAGAGGCGGCAGCCUUCGGUGGCGCGAUAGCGCCAACGUUCUCAACUAUGACACGCAAAACGCGUGCUCCGUUGAAUGGAGUUUAUCAUG

Variants of: B1
Assay: polymerase ribozyme fitness, log enrichment relative to wild type (log ratio); higher = more active; in vitro selection for triplet polymerase activity
How it was run: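 Input and output libraries were sequenced on Illumina after a single in vitro selection round, run in triplicate on PCR-built, transcribed mutant libraries of each subunit of a heterodimeric triplet polymerase ribozyme. Selection annealed libraries to a biotinylated primer, the partner subunit and triplets, incubated them frozen at −7 °C, then gel-excised extended constructs for streptavidin-bead capture and RT-PCR. Genotypes with ≥10 input reads and ≥1 read per output were kept. Fitness is the logarithm, taken in base 2, of genotype enrichment divided by wild-type enrichment, using inverse-variance-weighted replicate averages.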

Variant | polymerase ribozyme fitness (log ratio)
C27U G62A A97U A98C | -3.33
C27G A41C C54G C87G C114G C125A | ≤ -4.2
A26U G46U G58A A73U C85G U111G A150U | ≤ -4.2
C27U U78A C79G A91C C118G | ≤ -4.2
C27A G58A C76G C99U U101G | ≤ -4.2
C27A A28U A39C C54G C96A | ≤ -4.2
C27G C38U A39G A73C G94U U146C G152U | ≤ -4.2
A26U G50A A64G U101G G141A | ≤ -4.2
C27U C95U | -2.39
C27U A52C A60U C76U G84U C96G U109C | ≤ -4.2
A28G A49U U56A A66U U90G A106U C108G A119G | ≤ -4.2
C27U G92U | -1.78
A28C G86U | ≤ -4.2
C27A U55A G71A U77C C95U A113C C149G | ≤ -4.2
C27G G48C G80A G81A A113G C118A C132U G136C A150G | ≤ -4.2
A26U C54A U56G C75A C93A U134A | ≤ -4.2
C27A G34U U53A G71C G88U C96U U144A U146A | ≤ -4.2
C27A C35A G84U C103G | ≤ -4.2
A28G A29U C43G A47C G84U A110U | ≤ -4.2
C27U A29C G58C C85A U145A | ≤ -4.2
C27U U53A U61A C69G G88C | ≤ -4.2
A28C U31G A41U G65A C85G G88U C96U C103U U135G | ≤ -4.2
C27U A37C G59U U61A C63U A64C G92U | ≤ -4.2
C27U C57A C87A A115U | ≤ -4.2

Variant | polymerase ribozyme fitness (log ratio)
C27G C87U | -3.97
C27G C87A | ≤ -4.2
A26U G59A C87G | ≤ -4.2
C27G A37G C72A C105A | -4.13
A26U C96U A142C | -3.03
A26U G42U U44A U55A G59U C103G A119G A120U G140U | ≤ -4.2
C27A U33G A39G A60C C93U U127C G140A | -4.14
C27U G58A A60G G84U | -1.42
C27A U45A C87U A138C | ≤ -4.2
C27U C32G C36U C87G | ≤ -4.2
C27A C43A A52U U55A U56A G92U | ≤ -4.2
C27G C125A | -3.93
C27A A106C A113U C125A | ≤ -4.2
C27U A47G A52C G83A U146G | -3.62
A28G A37C U55A U90C A91G | ≤ -4.2
A28G A41C C96A U145G | ≤ -4.2
A26U G83U C95G C105A G141A U146C U151C | ≤ -4.2
C27G A29C C51A A73U G83A A97U U151A | ≤ -4.2
A28C G67A G100C A119G C131U U145G | ≤ -4.2
A28C A41C C95A G128A G140C G143A | ≤ -4.2
C27G C93U G141C | -3.68
C27G A37C A47C C87G A115C | ≤ -4.2
C27U G58C U139C | ≤ -4.2
A28C C85G A106C A113C | ≤ -4.2

Variant | polymerase ribozyme fitness (log ratio)
A28C U78G | ≤ -4.2
A26U C54A C93A A138C G141C | ≤ -4.2
C27U G84A A89G | -3.59
C27U C75A G81A G92A U135A | ≤ -4.2
A28C U151A | ≤ -4.2
A26U G86A | -2.74
C27U A39G A40C C69A U77C G94U C95A C116U G140U | ≤ -4.2
C27U G68C A89G C93A A110G G136C | ≤ -4.2
A26U G48C A49U A64C U90G A137G | -4.11
A28C A30U G86A | ≤ -4.2
C27G C32U C36U G88A C99U G141U G152C | -4.05
C27U A47C U56G C76U U78A G94A A97U C118U | ≤ -4.2
C27G U44G U77G G83C A89U | ≤ -4.2
C27G A28C A41U A91G C93U | ≤ -4.2
C27U G34A A66G A113C A121C | ≤ -4.2
C27A A30U U44A C57A A97G A98U A119C A120G G128A | ≤ -4.2
C27G C93U U130G U151A | ≤ -4.2
A26U C103A C114U | ≤ -4.2
A28C G80C U82G G88C U130C | ≤ -4.2
A28C C54G C79G C85G U145A | ≤ -4.2
A28C C87G G117C A137U | ≤ -4.2
A26U C93U A122U | -2.76
C27G G94C G136U | ≤ -4.2
C27U C75G U78A C85U U148G | ≤ -4.2

Variant | polymerase ribozyme fitness (log ratio)
A28G A40G G50A A52G G65U C96U | -3.77
C27A G71U | ≤ -4.2
C27A C85U C96A C114U A119G G140C | -4.07
C27A C54G C105U | ≤ -4.2
C27A G58U C95U C96A G124U | -4.08
A28C U78G C96G U148G | ≤ -4.2
A28C C85A | ≤ -4.2
A26U G62U U135A | -2.77
C27G A28G C69G C93G C95U | ≤ -4.2
C27G C38U A49C G65C C87G C114A A119G U145A | -4.07
C27A A47U A106U U145A | ≤ -4.2
A28G A52C U55A G67C C149G | ≤ -4.2
A28C C51A C76G G83C A110U U127G | ≤ -4.2
C27G U53A U102A | ≤ -4.2
A28C G84A G94U C96G C108G U139C G143C | ≤ -4.2
C27A G59A C85U U134A | ≤ -4.2
A26U U104C G126C U146A | -2.67
C27U C43A C75U C96U C105A | ≤ -4.2
C27G G67C G141A A147U G152A | ≤ -4.2
C27G G65A | ≤ -4.2
C27U G50U U55A C96A A110G G133U | -3.94
A28C U61A G88A | ≤ -4.2
C27A A66C A73C G92U U148C | ≤ -4.2
A28C U61A U134A U148C | ≤ -4.2

Variant | polymerase ribozyme fitness (log ratio)
A28C G58U A113G A119U | ≤ -4.2
C27G A37U A40C A64G G81A C95G A138C | -3.88
C27U U31G U55G G94C A113C | ≤ -4.2
A26U C75U | -3.23
C27U A91G A147C G152U | ≤ -4.2
A26U U31A U44G C75G U102G A120C | ≤ -4.2
C27U A37C A52C C87U G88C | ≤ -4.2
A28C C35U G124A G141U | ≤ -4.2
A26U C75A U82G G92U G100A A107U U144A | ≤ -4.2
A26U G62A | -1.51
A28C C36U A39U U55A A66U C79U A91U C93A | ≤ -4.2
A28C A52U C87U | ≤ -4.2
A28G A52C U53C C57U C87A G141A | ≤ -4.2
C27G G80A C114A C116U A142C | ≤ -4.2
C27U A29U U144C | ≤ -4.2
A26U C93U | -2.67
A28C G83C G128U | ≤ -4.2
C27A G86U U144A | ≤ -4.2
A28C G34A C38G C72U C76A C96G U151A | ≤ -4.2
C27G G92C A142U | ≤ -4.2
A28G A60C C76G | ≤ -4.2
A26U C69G A142U | -2.62
C27U A47C G128U | ≤ -4.2
C27G A40U G58A A73C C76U C95G | ≤ -4.2

Variant | polymerase ribozyme fitness (log ratio)
C27U C87A | ≤ -4.2
A28C U82A | ≤ -4.2
C27U A37U C99G | -3.64
C27U C63U C87A G141U | ≤ -4.2
A28G A49G G50A C87G | ≤ -4.2
A28C A60G C69U G74A U135G A138U G141U | ≤ -4.2
C27U C75G C85A C105G U130G U146G | ≤ -4.2
C27U C76U | -1.42
C27U C76A | -2.31
C27U A122G | -2.4
C27U U55A G70C A91U A97U A106G | ≤ -4.2
A26U G42U | ≤ -4.2
A28C U31G C125G | ≤ -4.2
C27U G83A C95U U102A G126C | -3.56
C27U U61G A64U C96U | ≤ -4.2
C27G A28C G48A U55A G68C C87U C108G | ≤ -4.2
C27A U33C G88C G141C | ≤ -4.2
A26U C85U | -1.63
C27U G58C C87A A107U | ≤ -4.2
C27A U55G A66U C72U U78G C79U A91C C105U | ≤ -4.2
C27U C38U A52U C85G G88U U102G | ≤ -4.2
C27G U56A | -3.69
A26U G94C | -2.1
C27U U31C A52C U78C U101A C125G | ≤ -4.2

Variant | polymerase ribozyme fitness (log ratio)
C27G A40C G48A C63A G70U G81A G92A | ≤ -4.2
C27U A39C G83A | ≤ -4.2
C27U G50C G141A | -4.12
A26U C72G G81A G86C | ≤ -4.2
A26U G141U | -1.94
C27U C51G | -3.3
C27G A66G C87U U109A A113U | ≤ -4.2
A26U U104C G124C | -3.3
C27G C36U G50U A73U U82A C95U | ≤ -4.2
C27G C35G A49C G70C C79A C95G | ≤ -4.2
C27A U90G A107U | ≤ -4.2
A28C A30C A41U C57U A107C | ≤ -4.2
C27G C51U | -3.97
C27G A147C | -4.05
A28C A64U G84A C85G | ≤ -4.2
A28C G46C G84A C85U C96U C116U C149U | ≤ -4.2
C27U A39C G50U C123A | ≤ -4.2
A28C A52U U55G C87G C125U G152A | ≤ -4.2
C27A C36U C87G G126C C149U | ≤ -4.2
C27U A40U G58C G59U G92U | -2.23
A26U C85U C105U A142C | -3.69
A26U U55A G74A G92A A110U G136A | ≤ -4.2
A26U U61A G71C C79U A98G U151A | ≤ -4.2
